The values that follow are results of earlier work, collected in patent publication US20170022546.

The target in the data set is T1, KZF (Kaiso zinc finger domain, three C2H2 fingers) (UniProt Q86T24).
T1 sequence: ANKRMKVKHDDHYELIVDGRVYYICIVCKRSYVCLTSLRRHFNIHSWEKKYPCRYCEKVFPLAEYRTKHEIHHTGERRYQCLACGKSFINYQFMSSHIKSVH
Particulars: 5mC; CITED ref 45; 1:1 complex.

What is called Kd is the constant that tells how readily two partners part at equilibrium. Regarding “consecutive methylated CpG target (literature)”, the Kd is 0.21 nM.
